Reference: IntAct's records for PubMed 19523899

B1: Tyrosine-protein phosphatase non-receptor type 23 (Mus musculus), Q6PB44 (parent)
chain: MEAVPRMPMIWLDLKEAGDFHFQSAVKKFVLKNYGENPEAYNEELKKLELLRQNAIRVARDFEGCSVLRKYLGQLHYLQSRVPMGSGQEAAVAVTWTEIFSGKSVSHEDIKYEQACILYNLGALHSMLGAMDKRVSEEGMKVSCTHFQCAAGAFAYLREHFPQAFSVDMSRQILTLNVNLMLGQAQECLLEKSMLDNRKSFLVARISAQVVDYYKEACRALENPDTASLLGRIQKDWKKLVQMKIYYFAAVAHLHMGKQAEEQQKFGERVAYFQSALDKLNEAIKLAKGQPDTVQDALRFAMDVIGGKYNSAKKDNDFIYHEAVPALDTLQPVKGAPLVKPLPVNPTDPAVTGPDIFAKLVPMAAHEASSLYSEEKAKLLREMLAKIEDKNEVLDQFMDSMQLDPETVDNLDAYNHIPPQLMEKCAALSVRPDTVKNLVQSMQVLSGVFTDVEASLKDIRDLLEEDELQEQKLQETLGQAGAGPGPSVAKAELAEVRREWAKYMEVHEKASFTNSELHRAMNLHVGNLRLLSGPLDQVRAALPTPALTPEDKAVLQNLKRILAKVQEMRDQRVSLEQQLRELIQKDDITASLVTTDHSEMKKLFEEQLKKYDQLKVYLEQNLAAQDNVLRALTEANVQYAAVRRVLSELDQKWNSTLQTLVASYEAYEDLMKKSQEGKDFYADLESKVATLLERAQSICRAQEAARQQLLDRELKKKAPPPRPTAPKPLLSRREEGEAVEAGDTPEELRSLPPDMMVGPRLPDPFLGTTAPLHFSPGPFPSSTGPATHYLSGPLPPGTYSGPTQLMQPRAAVPMAPATVLYPAPAYTSELGLVPRSSPQHGIVSSPYAGVGPPQPVVGLPSAPPPQLSGPELAMTVRPATTTVDSVQAPISSHTAPRPNPTPALPQPCFPVPQPVPQSVPQPQPLPVPYTYSIGTKQPLPAPYTYSIGTKQHLTGPLPQHQFPPGIPTGFPVPRTGPQAQAQPQPQPQPQPQPQPQPQPQPQPQSQSQPQPQPQPQPQRPAFGPQPTQQPLPFQHPHLFPSQAPGILPPPPPTPYHFTPQPGVLGQPPPTLHTQLYPGPSQDPLPPHSGALPFPSPGPPHPHPTLAYGPAPSPRPLGPQATPVSIRGPPPASQPTPSPHLVPSPAPSPGPGPVPSRPPTAEPPPCLRRGAAAADLLSSSPESQHGGTQPPGGGQPLLQPTKVDAAEGRRPQALRLIEQDPYEHPERLQQLQQELEAFRGQLGDAGALDAIWRELQEAQEHDARGRSIAIARCYSLKNRHQDVMPYDSNRVVLRSGKDDYINASCVEGLSPYCPPLVATQAPLPGTAADFWLMVHEQKVSVIVMLVSEAEMEKQKVARYFPTERGQPMVHGALSVALSSIRTTETHVERVLSLQFRDQSLKRSLVHLHFPTWPELGLPDSPGNLLRFIQEVHAHYLHQRPLHTPIVVHCSSGVGRTGAFALLYAAVQEVEAGNGIPELPQLVRRMRQQRKHMLQEKLHLKFCHEALVRHVEQVLQRHGVPPPGKPVASVNISQKNHLPQDSQDLVLGGDVPISSIQATIAKLSIRPLGGLDSPAASLPGLVEPPGLPPASLPESTPVPSSSPPPLSSPLPEAPQPEEEPSVPEAPSLGPPSSSLELLASLTPEAFSLDSSLRGKQRMSKQNFLQAHNGQGLRAAQPTDDPLSLLDPLWTLNKT
partner: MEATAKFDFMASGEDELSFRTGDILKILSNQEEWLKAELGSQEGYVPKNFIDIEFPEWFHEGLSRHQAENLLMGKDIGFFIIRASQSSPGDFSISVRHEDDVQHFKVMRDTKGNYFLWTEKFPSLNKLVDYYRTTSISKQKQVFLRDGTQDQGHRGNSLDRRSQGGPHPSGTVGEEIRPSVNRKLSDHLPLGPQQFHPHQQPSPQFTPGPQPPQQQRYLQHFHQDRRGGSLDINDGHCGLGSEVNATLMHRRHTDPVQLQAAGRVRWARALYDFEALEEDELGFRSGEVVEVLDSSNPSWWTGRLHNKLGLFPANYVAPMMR

Variants of: B1
Conditions: with grap2_mouse Grap2, O89100

Row | Variant | effect of a mutation on the interaction
1 | K727A;P728A | disrupting interaction strength
2 | P720A;R722A | disrupting interaction
3 | R722A | decreasing interaction
4 | K727A | decreasing interaction strength
5 | K727H | decreasing interaction strength
